The source of these data is patent publication US20240218057A1.

Holding throughout (assay): cell-based or functional assay
In test [1] the target is SARS-COV-2 spike protein K417N on pseudotyped virus (SARS-CoV-2) (UniProt P0DTC2).
Test [2] concerns the target SARS-COV-2 spike protein R346S on pseudotyped virus (SARS-CoV-2) (UniProt P0DTC2).
In test [3] the target is SARS-COV-2 spike protein A475V on pseudotyped virus (SARS-CoV-2) (UniProt P0DTC2).
Test [4] deals with SARS-COV-2 spike protein R683G on pseudotyped virus (SARS-CoV-2) (UniProt P0DTC2).
Test [5] deals with SARS-COV-2 spike protein E484K (R683G) on pseudotyped virus (SARS-CoV-2) (UniProt P0DTC2).
The target in test [6] is SARS-COV-2 spike protein N440K on pseudotyped virus (SARS-CoV-2) (UniProt P0DTC2).
In test [7] the target is SARS-COV-2 spike protein N501Y on pseudotyped virus (SARS-CoV-2) (UniProt P0DTC2).
Test [8] has as its target SARS-CoV-2 spike protein Q493R (pseudovirus) (SARS-CoV-2) (UniProt P0DTC2).
For test [9], the target named is SARS-CoV-2 spike protein N501Y (pseudovirus) (SARS-CoV-2) (UniProt P0DTC2).
Test [10] addresses SARS-CoV-2 spike protein E484K (R683G) (pseudovirus) (SARS-CoV-2) (UniProt P0DTC2).
The target of test [11] is SARS-CoV-2 spike protein N440K (pseudovirus) (SARS-CoV-2) (UniProt P0DTC2).
In test [12] the target is SARS-CoV-2 spike protein R683G (pseudovirus) (SARS-CoV-2) (UniProt P0DTC2).
The target of test [13] is SARS-CoV-2 spike protein R346S (pseudovirus) (SARS-CoV-2) (UniProt P0DTC2).
In test [14] the target is SARS-CoV-2 spike protein K417N (pseudovirus) (SARS-CoV-2) (UniProt P0DTC2).
For test [15], the target named is SARS-CoV-2 spike protein K417N/E484K/N501Y (R683G) (pseudovirus) (SARS-CoV-2) (UniProt P0DTC2).
Test [16] deals with SARS-CoV-2 spike protein A475V (pseudovirus) (SARS-CoV-2) (UniProt P0DTC2).

For the substance C121 (antibody), the neutralization IC50 in [1] is 0.0031 µg/mL; in test [2] it was 0.00363 µg/mL; in test [3], 0.00253 µg/mL; in test [4], 0.00167 µg/mL; in test [5] it was more than 1 µg/mL; in test [6], 0.0035 µg/mL. The same substance yielded a neutralization IC50 in test [7] of 0.00375 µg/mL. In addition, the neutralization IC90 in [1] was 0.0163 µg/mL; in test [2] it was 0.0156 µg/mL; in [3] it was 0.0183 µg/mL; in test [4], 0.0108 µg/mL; in [5], more than 1 µg/mL; in [6], 0.0182 µg/mL. In addition, the neutralization IC90 in [7] was determined as 0.0189 µg/mL.
Turning to C135 (antibody), the neutralization IC50 is 0.00348 µg/mL in test [1]; more than 1 µg/mL in [2]; 0.00461 µg/mL in test [3]; 0.00271 µg/mL in [4]; 0.00199 µg/mL in test [5]; more than 1 µg/mL in test [6]. This substance also yielded a neutralization IC50 in test [7] of 0.0129 µg/mL. Besides, the neutralization IC90 is 0.0147 µg/mL in [1]; more than 1 µg/mL in [2]; 0.0272 µg/mL in [3]; 0.0228 µg/mL in test [4]; 0.02 µg/mL in test [5]; more than 1 µg/mL in test [6]. The neutralization IC90 in test [7] is 0.141 µg/mL.
Turning to C144 (antibody), the IC50 neutralization in test [8] was more than 1 µg/mL; in test [9], 0.003 µg/mL; in [10] it was more than 1 µg/mL; in test [11], 0.0024 µg/mL; in [12], 0.0012 µg/mL; in test [13], 0.0034 µg/mL. Further, the IC50 neutralization was 0.0018 µg/mL in [14], more than 1 µg/mL in test [15] and 0.0032 µg/mL in [16]. The IC90 neutralization was more than 1 µg/mL in test [8]; 0.0189 µg/mL in [9]; more than 1 µg/mL in test [10]; 0.0135 µg/mL in test [11]; 0.0067 µg/mL in test [12]; 0.0167 µg/mL in test [13]. The IC90 neutralization is 0.0115 µg/mL in test [14], more than 1 µg/mL in test [15] and 0.0162 µg/mL in [16]. The neutralization IC50 in test [1] is 0.00184 µg/mL; in [2], 0.00341 µg/mL; in test [3] it was 0.00319 µg/mL; in [4], 0.00123 µg/mL; in [5], more than 1 µg/mL; in test [6], 0.0024 µg/mL. In [7], this substance yielded a neutralization IC50 of 0.00305 µg/mL. Further, the neutralization IC90 in test [1] was 0.0115 µg/mL; in [2] it was 0.0167 µg/mL; in test [3] it was 0.0162 µg/mL; in test [4], 0.00666 µg/mL; in [5], more than 1 µg/mL; in [6] it was 0.0135 µg/mL. In test [7], this substance gave a neutralization IC90 of 0.0189 µg/mL.
